Results from US20150344570A1 (published 2015).

biological target: T1, FcγRIa (human, UniProt P12314 16-292); test: SPR (Biacore), captured antibody, FcγRIa analyte; relative to HeCon Ab GpH7-A5/GpH7-B3/GpL16-k0 = 100
T1 construct: extracellular domain; soluble extracellular domain with C-terminal His tag, expressed in FreeStyle293 cells; also called FcgRI; FcgRIa
T1 sequence (P12314 16-292): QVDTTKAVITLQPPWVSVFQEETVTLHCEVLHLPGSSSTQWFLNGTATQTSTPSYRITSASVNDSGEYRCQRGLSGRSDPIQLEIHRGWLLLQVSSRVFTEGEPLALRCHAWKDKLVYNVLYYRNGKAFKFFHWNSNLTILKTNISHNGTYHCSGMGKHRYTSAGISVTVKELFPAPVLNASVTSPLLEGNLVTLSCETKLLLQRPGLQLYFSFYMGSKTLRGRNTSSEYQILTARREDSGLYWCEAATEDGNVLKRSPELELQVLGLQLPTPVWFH

Binder	He/Con_1a
GpH7-A5/GpH7-B3 variant P271_04F/GpL16-k0 (antibody, human IgG1, kappa, heterodimerized IgG1, mutation in one H chain; also called He Ab) heavy 1: not shown heavy 2: not shown light: DIVMTQSPLSLPVTPGEPASISCQASESLVHSNRNTYLHWYLQKPGQSPQLLIYKVSNRFSGVPDRFSGSGSGTDFTLKISRVEAEDVGVYYCSQNTHVPPTFGQGTKVEIERTVAAPSVFIFPPSDEQLKSGTASVVCLLNNFYPREAKVQWKVDNALQSGNSQESVTEQDSKDSTYSLSSTLTLSKADYEKHKVYACEVTHQGLSSPVTKSFNRGEC	102 % of control
GpH7-A5/GpH7-B3 variant P271_13S/GpL16-k0 (antibody, human IgG1, kappa, heterodimerized IgG1, mutation in one H chain; also called He Ab) heavy 1: not shown heavy 2: not shown light: DIVMTQSPLSLPVTPGEPASISCQASESLVHSNRNTYLHWYLQKPGQSPQLLIYKVSNRFSGVPDRFSGSGSGTDFTLKISRVEAEDVGVYYCSQNTHVPPTFGQGTKVEIERTVAAPSVFIFPPSDEQLKSGTASVVCLLNNFYPREAKVQWKVDNALQSGNSQESVTEQDSKDSTYSLSSTLTLSKADYEKHKVYACEVTHQGLSSPVTKSFNRGEC	102 % of control
GpH7-A5/GpH7-B3 variant P271_12R/GpL16-k0 (antibody, human IgG1, kappa, heterodimerized IgG1, mutation in one H chain; also called He Ab) heavy 1: not shown heavy 2: not shown light: DIVMTQSPLSLPVTPGEPASISCQASESLVHSNRNTYLHWYLQKPGQSPQLLIYKVSNRFSGVPDRFSGSGSGTDFTLKISRVEAEDVGVYYCSQNTHVPPTFGQGTKVEIERTVAAPSVFIFPPSDEQLKSGTASVVCLLNNFYPREAKVQWKVDNALQSGNSQESVTEQDSKDSTYSLSSTLTLSKADYEKHKVYACEVTHQGLSSPVTKSFNRGEC	102 % of control
GpH7-A5/GpH7-B3 variant P271_11K/GpL16-k0 (antibody, human IgG1, kappa, heterodimerized IgG1, mutation in one H chain; also called He Ab) heavy 1: not shown heavy 2: not shown light: DIVMTQSPLSLPVTPGEPASISCQASESLVHSNRNTYLHWYLQKPGQSPQLLIYKVSNRFSGVPDRFSGSGSGTDFTLKISRVEAEDVGVYYCSQNTHVPPTFGQGTKVEIERTVAAPSVFIFPPSDEQLKSGTASVVCLLNNFYPREAKVQWKVDNALQSGNSQESVTEQDSKDSTYSLSSTLTLSKADYEKHKVYACEVTHQGLSSPVTKSFNRGEC	103 % of control
GpH7-A5/GpH7-B3 variant Q295_03V/GpL16-k0 (antibody, human IgG1, kappa, heterodimerized IgG1, mutation in one H chain; also called He Ab) heavy 1: not shown heavy 2: not shown light: DIVMTQSPLSLPVTPGEPASISCQASESLVHSNRNTYLHWYLQKPGQSPQLLIYKVSNRFSGVPDRFSGSGSGTDFTLKISRVEAEDVGVYYCSQNTHVPPTFGQGTKVEIERTVAAPSVFIFPPSDEQLKSGTASVVCLLNNFYPREAKVQWKVDNALQSGNSQESVTEQDSKDSTYSLSSTLTLSKADYEKHKVYACEVTHQGLSSPVTKSFNRGEC	104 % of control
GpH7-A5/GpH7-B3 variant Q295_02A/GpL16-k0 (antibody, human IgG1, kappa, heterodimerized IgG1, mutation in one H chain; also called He Ab) heavy 1: not shown heavy 2: not shown light: DIVMTQSPLSLPVTPGEPASISCQASESLVHSNRNTYLHWYLQKPGQSPQLLIYKVSNRFSGVPDRFSGSGSGTDFTLKISRVEAEDVGVYYCSQNTHVPPTFGQGTKVEIERTVAAPSVFIFPPSDEQLKSGTASVVCLLNNFYPREAKVQWKVDNALQSGNSQESVTEQDSKDSTYSLSSTLTLSKADYEKHKVYACEVTHQGLSSPVTKSFNRGEC	104 % of control
GpH7-A5/GpH7-B3 variant Q295_05P/GpL16-k0 (antibody, human IgG1, kappa, heterodimerized IgG1, mutation in one H chain; also called He Ab) heavy 1: not shown heavy 2: not shown light: DIVMTQSPLSLPVTPGEPASISCQASESLVHSNRNTYLHWYLQKPGQSPQLLIYKVSNRFSGVPDRFSGSGSGTDFTLKISRVEAEDVGVYYCSQNTHVPPTFGQGTKVEIERTVAAPSVFIFPPSDEQLKSGTASVVCLLNNFYPREAKVQWKVDNALQSGNSQESVTEQDSKDSTYSLSSTLTLSKADYEKHKVYACEVTHQGLSSPVTKSFNRGEC	103 % of control
GpH7-A5/GpH7-B3 variant P271_06M/GpL16-k0 (antibody, human IgG1, kappa, heterodimerized IgG1, mutation in one H chain; also called He Ab) heavy 1: not shown heavy 2: not shown light: DIVMTQSPLSLPVTPGEPASISCQASESLVHSNRNTYLHWYLQKPGQSPQLLIYKVSNRFSGVPDRFSGSGSGTDFTLKISRVEAEDVGVYYCSQNTHVPPTFGQGTKVEIERTVAAPSVFIFPPSDEQLKSGTASVVCLLNNFYPREAKVQWKVDNALQSGNSQESVTEQDSKDSTYSLSSTLTLSKADYEKHKVYACEVTHQGLSSPVTKSFNRGEC	102 % of control
GpH7-A5/GpH7-B3 variant Q295_04F/GpL16-k0 (antibody, human IgG1, kappa, heterodimerized IgG1, mutation in one H chain; also called He Ab) heavy 1: not shown heavy 2: not shown light: DIVMTQSPLSLPVTPGEPASISCQASESLVHSNRNTYLHWYLQKPGQSPQLLIYKVSNRFSGVPDRFSGSGSGTDFTLKISRVEAEDVGVYYCSQNTHVPPTFGQGTKVEIERTVAAPSVFIFPPSDEQLKSGTASVVCLLNNFYPREAKVQWKVDNALQSGNSQESVTEQDSKDSTYSLSSTLTLSKADYEKHKVYACEVTHQGLSSPVTKSFNRGEC	102 % of control
GpH7-A5/GpH7-B3 variant P271_20W/GpL16-k0 (antibody, human IgG1, kappa, heterodimerized IgG1, mutation in one H chain; also called He Ab) heavy 1: not shown heavy 2: not shown light: DIVMTQSPLSLPVTPGEPASISCQASESLVHSNRNTYLHWYLQKPGQSPQLLIYKVSNRFSGVPDRFSGSGSGTDFTLKISRVEAEDVGVYYCSQNTHVPPTFGQGTKVEIERTVAAPSVFIFPPSDEQLKSGTASVVCLLNNFYPREAKVQWKVDNALQSGNSQESVTEQDSKDSTYSLSSTLTLSKADYEKHKVYACEVTHQGLSSPVTKSFNRGEC	103 % of control
GpH7-A5/GpH7-B3 variant P271_07I/GpL16-k0 (antibody, human IgG1, kappa, heterodimerized IgG1, mutation in one H chain; also called He Ab) heavy 1: not shown heavy 2: not shown light: DIVMTQSPLSLPVTPGEPASISCQASESLVHSNRNTYLHWYLQKPGQSPQLLIYKVSNRFSGVPDRFSGSGSGTDFTLKISRVEAEDVGVYYCSQNTHVPPTFGQGTKVEIERTVAAPSVFIFPPSDEQLKSGTASVVCLLNNFYPREAKVQWKVDNALQSGNSQESVTEQDSKDSTYSLSSTLTLSKADYEKHKVYACEVTHQGLSSPVTKSFNRGEC	102 % of control

Second part, the binder after the results:

He/Con_1a	Binder
101 % of control	GpH7-A5/GpH7-B3 variant S239_01G/GpL16-k0 (antibody, human IgG1, kappa, heterodimerized IgG1, mutation in one H chain; also called He Ab) heavy 1: not shown heavy 2: not shown light: DIVMTQSPLSLPVTPGEPASISCQASESLVHSNRNTYLHWYLQKPGQSPQLLIYKVSNRFSGVPDRFSGSGSGTDFTLKISRVEAEDVGVYYCSQNTHVPPTFGQGTKVEIERTVAAPSVFIFPPSDEQLKSGTASVVCLLNNFYPREAKVQWKVDNALQSGNSQESVTEQDSKDSTYSLSSTLTLSKADYEKHKVYACEVTHQGLSSPVTKSFNRGEC
101 % of control	GpH7-A5/GpH7-B3 variant S239_09D/GpL16-k0 (antibody, human IgG1, kappa, heterodimerized IgG1, mutation in one H chain; also called He Ab) heavy 1: not shown heavy 2: not shown light: DIVMTQSPLSLPVTPGEPASISCQASESLVHSNRNTYLHWYLQKPGQSPQLLIYKVSNRFSGVPDRFSGSGSGTDFTLKISRVEAEDVGVYYCSQNTHVPPTFGQGTKVEIERTVAAPSVFIFPPSDEQLKSGTASVVCLLNNFYPREAKVQWKVDNALQSGNSQESVTEQDSKDSTYSLSSTLTLSKADYEKHKVYACEVTHQGLSSPVTKSFNRGEC
110 % of control	GpH7-A5/GpH7-B3 variant S298_03V/GpL16-k0 (antibody, human IgG1, kappa, heterodimerized IgG1, mutation in one H chain; also called He Ab) heavy 1: not shown heavy 2: not shown light: DIVMTQSPLSLPVTPGEPASISCQASESLVHSNRNTYLHWYLQKPGQSPQLLIYKVSNRFSGVPDRFSGSGSGTDFTLKISRVEAEDVGVYYCSQNTHVPPTFGQGTKVEIERTVAAPSVFIFPPSDEQLKSGTASVVCLLNNFYPREAKVQWKVDNALQSGNSQESVTEQDSKDSTYSLSSTLTLSKADYEKHKVYACEVTHQGLSSPVTKSFNRGEC
103 % of control	GpH7-A5/GpH7-B3 variant S267_01G/GpL16-k0 (antibody, human IgG1, kappa, heterodimerized IgG1, mutation in one H chain; also called He Ab) heavy 1: not shown heavy 2: not shown light: DIVMTQSPLSLPVTPGEPASISCQASESLVHSNRNTYLHWYLQKPGQSPQLLIYKVSNRFSGVPDRFSGSGSGTDFTLKISRVEAEDVGVYYCSQNTHVPPTFGQGTKVEIERTVAAPSVFIFPPSDEQLKSGTASVVCLLNNFYPREAKVQWKVDNALQSGNSQESVTEQDSKDSTYSLSSTLTLSKADYEKHKVYACEVTHQGLSSPVTKSFNRGEC
110 % of control	GpH7-A5/GpH7-B3 variant S267_09D/GpL16-k0 (antibody, human IgG1, kappa, heterodimerized IgG1, mutation in one H chain; also called He Ab) heavy 1: not shown heavy 2: not shown light: DIVMTQSPLSLPVTPGEPASISCQASESLVHSNRNTYLHWYLQKPGQSPQLLIYKVSNRFSGVPDRFSGSGSGTDFTLKISRVEAEDVGVYYCSQNTHVPPTFGQGTKVEIERTVAAPSVFIFPPSDEQLKSGTASVVCLLNNFYPREAKVQWKVDNALQSGNSQESVTEQDSKDSTYSLSSTLTLSKADYEKHKVYACEVTHQGLSSPVTKSFNRGEC
106 % of control	GpH7-A5/GpH7-B3 variant S267_03V/GpL16-k0 (antibody, human IgG1, kappa, heterodimerized IgG1, mutation in one H chain; also called He Ab) heavy 1: not shown heavy 2: not shown light: DIVMTQSPLSLPVTPGEPASISCQASESLVHSNRNTYLHWYLQKPGQSPQLLIYKVSNRFSGVPDRFSGSGSGTDFTLKISRVEAEDVGVYYCSQNTHVPPTFGQGTKVEIERTVAAPSVFIFPPSDEQLKSGTASVVCLLNNFYPREAKVQWKVDNALQSGNSQESVTEQDSKDSTYSLSSTLTLSKADYEKHKVYACEVTHQGLSSPVTKSFNRGEC
102 % of control	GpH7-A5/GpH7-B3 variant Q295_13S/GpL16-k0 (antibody, human IgG1, kappa, heterodimerized IgG1, mutation in one H chain; also called He Ab) heavy 1: not shown heavy 2: not shown light: DIVMTQSPLSLPVTPGEPASISCQASESLVHSNRNTYLHWYLQKPGQSPQLLIYKVSNRFSGVPDRFSGSGSGTDFTLKISRVEAEDVGVYYCSQNTHVPPTFGQGTKVEIERTVAAPSVFIFPPSDEQLKSGTASVVCLLNNFYPREAKVQWKVDNALQSGNSQESVTEQDSKDSTYSLSSTLTLSKADYEKHKVYACEVTHQGLSSPVTKSFNRGEC
102 % of control	GpH7-A5/GpH7-B3 variant Q295_18N/GpL16-k0 (antibody, human IgG1, kappa, heterodimerized IgG1, mutation in one H chain; also called He Ab) heavy 1: not shown heavy 2: not shown light: DIVMTQSPLSLPVTPGEPASISCQASESLVHSNRNTYLHWYLQKPGQSPQLLIYKVSNRFSGVPDRFSGSGSGTDFTLKISRVEAEDVGVYYCSQNTHVPPTFGQGTKVEIERTVAAPSVFIFPPSDEQLKSGTASVVCLLNNFYPREAKVQWKVDNALQSGNSQESVTEQDSKDSTYSLSSTLTLSKADYEKHKVYACEVTHQGLSSPVTKSFNRGEC
103 % of control	GpH7-A5/GpH7-B3 variant Q295_14T/GpL16-k0 (antibody, human IgG1, kappa, heterodimerized IgG1, mutation in one H chain; also called He Ab) heavy 1: not shown heavy 2: not shown light: DIVMTQSPLSLPVTPGEPASISCQASESLVHSNRNTYLHWYLQKPGQSPQLLIYKVSNRFSGVPDRFSGSGSGTDFTLKISRVEAEDVGVYYCSQNTHVPPTFGQGTKVEIERTVAAPSVFIFPPSDEQLKSGTASVVCLLNNFYPREAKVQWKVDNALQSGNSQESVTEQDSKDSTYSLSSTLTLSKADYEKHKVYACEVTHQGLSSPVTKSFNRGEC
103 % of control	GpH7-A5/GpH7-B3 variant Q295_07I/GpL16-k0 (antibody, human IgG1, kappa, heterodimerized IgG1, mutation in one H chain; also called He Ab) heavy 1: not shown heavy 2: not shown light: DIVMTQSPLSLPVTPGEPASISCQASESLVHSNRNTYLHWYLQKPGQSPQLLIYKVSNRFSGVPDRFSGSGSGTDFTLKISRVEAEDVGVYYCSQNTHVPPTFGQGTKVEIERTVAAPSVFIFPPSDEQLKSGTASVVCLLNNFYPREAKVQWKVDNALQSGNSQESVTEQDSKDSTYSLSSTLTLSKADYEKHKVYACEVTHQGLSSPVTKSFNRGEC
109 % of control	GpH7-A5/GpH7-B3 variant S267_02A/GpL16-k0 (antibody, human IgG1, kappa, heterodimerized IgG1, mutation in one H chain; also called He Ab) heavy 1: not shown heavy 2: not shown light: DIVMTQSPLSLPVTPGEPASISCQASESLVHSNRNTYLHWYLQKPGQSPQLLIYKVSNRFSGVPDRFSGSGSGTDFTLKISRVEAEDVGVYYCSQNTHVPPTFGQGTKVEIERTVAAPSVFIFPPSDEQLKSGTASVVCLLNNFYPREAKVQWKVDNALQSGNSQESVTEQDSKDSTYSLSSTLTLSKADYEKHKVYACEVTHQGLSSPVTKSFNRGEC
